Measured values reported in US20140179896A1 (published 2014).

B1: 1′DelAl PR4 (designed binder)
chain: EVVAATPTSLLISWRHPHFPTRYYRITYGETGGNSPVQEFTVPLQPPTATISGLKPGVDYTITGYAVTVAQNDHELLTPISINYRT
notes: Del 1-8
B2: 1′Del G10 PR4 (designed binder)
chain: EVVAATPTSLLISWRHPHFPTRYYRITYGETGGNSPVQEFTVPLQPPTATISGLKPGVDYTITGYAVTMAQNGHKLMTPISINYRT
notes: Del 1-8
B3: 1′DelA2 PR4 (designed binder)
chain: EVVAATPTSLLISWRHPHFPTRYYRITYGETGGNSPVQEFTVPLQPPTATISGLKPGVDYTITGYAVTVAQNGHQLFTPISINYRT
notes: Del 1-8
B4: 1′DelD1 PR4 (designed binder)
chain: EVVAATPTSLLISWRHPHFPTRYYRITYGETGGNSPVQEFTVPLQPPTATISGLKPGVDYTITGYAVTVTQNDHELLTPISINYRT
notes: Del 1-8
B5: 1′DelD2 PR4 (designed binder)
chain: EVVAATPTSLLISWRHPHFPTRYYRITYGETGGNSPVQEFTVPLQPPTATISGLKPGVDYTITGYAVTVAKNDHELLTPISINYRT
notes: Del 1-8
B6: 1′DelD5 PR4 (designed binder)
chain: EVVAATPTSLLISWRHPHFPTRYYRITYGETGGNSPVQEFTVPLQPPTATISGLKPGVDYTITGYAVTVGQNHHELFTPISINYRT
notes: Del 1-8
B7: 1′DelE2 PR4 (designed binder)
chain: EVVAATPTSLLISWRHPHFPTRYYRITYGETGGNSPVQEFTVPLQPPTATISGLKPGVDYTITGYAVTVGQNDHELLTPISINYRT
notes: Del 1-8
B8: 1′DelE6 PR4 (designed binder)
chain: EVVAATPTSLLISWRHPHFPTRYYRITYGETGGNSPVQEFTVPLQPPTATISGLKPGVDYTITGYAVTLAQNDRELLTPISINYRT
notes: Del 1-8
B9: 1′DelE7 PR4 (designed binder)
chain: EVVAATPTSLLISWRHPHFPTRYYRITYGETGGNSPVQEFTVPLQPPTATISGLKPGVDYTITGYAVTVAQNGHELFTPISINYRT
notes: Del 1-8
B10: 1′DelF3 PR4 (designed binder)
chain: EVVAATPTSLLISWRHPHFPTRYYRITYGETGGNSPVQEFTVPLQPPTATISGLKPGVDYTITGYAVTMAQNDHKLFTPISINYRT
notes: Del 1-8
B11: 1′DelH5 PR4 (designed binder)
chain: EVVAATPTSLLISWRHPHFPTRYYRITYGETGGNSPVQEFTVPLQPPTATISGLKPGVDYTITGYAVTVAQNDRELFTPISINYRT
notes: Del 1-8
B12: 1′DelH10 PR4 (designed binder)
chain: EVVAATPTSLLISWRHPHFPTRYYRITYGETGGNSPVQEFTVPLQPPTATISGLKPGVDYTITGYAVTFAQNDHELLTPISINYRT
notes: Del 1-8
B13: 1′DelH12 PR4 (designed binder)
chain: EVVAATPTSLLISWRHPHFPTRYYRITYGETGGNSPVQEFTVPLQPPTATISGLKPGVDYTITGYAVTVAQNERELFTPISINYRT
notes: Del 1-8
B14: 2′Del A2 PR4 (designed binder)
chain: EVVAATPTSLLISWRHPHFPTRYYRITYGETGGNSPVQEFTVPLQPPTATISGLKPGVDYTITGYAVTGGRNGHTLLTPISINYRT
notes: Del 1-8
B15: 2′Del A11 PR4 (designed binder)
chain: EVVAATPTSLLISWRHPHFPTRYYRITYGETGGNSPVQEFTVPLQPPTATISGLKPGVDYTITGYAVTEDIRVLWLNTTISINYRT
notes: Del 1-8
B16: 2′Del B2 PR4 (designed binder)
chain: EVVAATPTSLLISWRHPHFPTRYYRITYGETGGNSPVQEFTVPLQPPTATISGLKPGVDYTITGYAVTTGWNGNELFTPISINYRT
notes: Del 1-8
B17: 2′Del B3 PR4 (designed binder)
chain: EVVAATPTSLLISWRHPHFPTRYYRITYGETGGNSPVQEFTVPLQPPTATISGLKPGVDYTITGYAVTDAPNGRELMVPISINYRT
notes: Del 1-8
B18: 2′Del B4 PR4 (designed binder)
chain: EVVAATPTSLLISWRHPHFPTRYYRITYGETGGNSPVQEFTVPLQPPTATISGLKPGVDYTITGYAVTSGHNGHEVMTPISINYRT
notes: Del 1-8
B19: 2′Del B5 PR4 (designed binder)
chain: EVVAATPTSLLISWRHPHFPTRYYRITYGETGGNSPVQEFTVPLQPPTATISGLKPGVDYTITGYAVTAGRHDHELIIPISINYRT
notes: Del 1-8
B20: 2′Del C1 PR4 (designed binder)
chain: EVVAATPTSLLISWRHPHFPTRYYRITYGETGGNSPVQEFTVPLQPPTATISGLKPGVDYTITGYAVTAGLDEHELLIPISINYRT
notes: Del 1-8
B21: 2′Del C5 PR4 (designed binder)
chain: EVVAATPTSLLISWRHPHFPTRYYRITYGETGGNSPVQEFTVPLQPPTATISGLKPGVDYTITGYAVTPGHNDHELMVPISINYRT
notes: Del 1-8
B22: 2′Del C6 PR4 (designed binder)
chain: EVVAATPTSLLISWRHPHFPTRYYRITYGETGGNSPVQEFTVPLQPPTATISGLKPGVDYTITGYAVTMGFMAHELMVPISINYRT
notes: Del 1-8
B23: 2′Del C8 PR4 (designed binder)
chain: EVVAATPTSLLISWRHPHFPTRYYRITYGETGGNSPVQEFTVPLQPPTATISGLKPGVDYTITGYAVTTAHNGHELLTPISINYRT
notes: Del 1-8
B24: 2′Del C11 PR4 (designed binder)
chain: EVVAATPTSLLISWRHPHFPTRYYRITYGETGGNSPVQEFTVPLQPPTATISGLKPGVDYTITGYAVTAGLNEHELLIPISINYRT
notes: Del 1-8
B25: 2′Del D1 PR4 (designed binder)
chain: EVVAATPTSLLISWRHPHFPTRYYRITYGETGGNSPVQEFTVPLQPPTATISGLKPGVDYTITGYAVTLEQNDRVLLTPISINYRT
notes: Del 1-8
B26: 2′Del D3 PR4 (designed binder)
chain: EVVAATPTSLLISWRHPHFPTRYYRITYGETGGNSPVQEFTVPLQPPTATISGLKPGVDYTITGYAVTSGLNDRVLFIPISINYRT
notes: Del 1-8
B27: 2′Del D5 PR4 (designed binder)
chain: EVVAATPTSLLISWRHPHFPTRYYRITYGETGGNSPVQEFTVPLQPPTATISGLKPGVDYTITGYAVTVAWNDHMLMTPISINYRT
notes: Del 1-8
B28: 2′Del D10 PR4 (designed binder)
chain: EVVAATPTSLLISWRHPHFPTRYYRITYGETGGNSPVQEFTVPLQPPTATISGLKPGVDYTITGYAVTLADNARELLTPISINYRT
notes: Del 1-8
B29: 2′Del E3 PR4 (designed binder)
chain: EVVAATPTSLLISWRHPHFPTRYYRITYGETGGNSPVQEFTVPLQPPTATISGLKPGVDYTITGYAVTLGPYEHELLTPISINYRT
notes: Del 1-8
B30: 2′Del E5 PR4 (designed binder)
chain: EVVAATPTSLLISWRHPHFPTRYYRITYGETGGNSPVQEFTVPLQPPTATISGLKPGVDYTITGYAVTEGLNDHELIIPISINYRT
notes: Del 1-8
B31: 2′Del E6 PR4 (designed binder)
chain: EVVAATPTSLLISWRHPHFPTRYYRITYGETGGNSPVQEFTVPLQPPTATISGLKPGVDYTITGYAVTMGKNGHELLTPISINYRT
notes: Del 1-8
B32: 2′Del F1 PR4 (designed binder)
chain: EVVAATPTSLLISWRHPHFPTRYYRITYGETGGNSPVQEFTVPLQPPTATISGLKPGVDYTITGYAVTRDQYEHELLTPISINYRT
notes: Del 1-8
B33: 2′Del F5 PR4 (designed binder)
chain: EVVAATPTSLLISWRHPHFPTRYYRITYGETGGNSPVQEFTVPLQPPTATISGLKPGVDYTITGYAVTLVHNDRELLTPISINYRT
notes: Del 1-8
B34: 2′Del F7 PR4 (designed binder)
chain: EVVAATPTSLLISWRHPHFPTRYYRITYGETGGNSPVQEFTVPLQPPTATISGLKPGVDYTITGYAVTLGLRDRELFVPISINYRT
notes: Del 1-8
B35: 2′Del F8 PR4 (designed binder)
chain: EVVAATPTSLLISWRHPHFPTRYYRITYGETGGNSPVQEFTVPLQPPTATISGLKPGVDYTITGYAVTAGPGAHELLTPISINYRT
notes: Del 1-8
B36: 2′Del F11 PR4 (designed binder)
chain: EVVAATPTSLLISWRHPHFPTRYYRITYGETGGNSPVQEFTVPLQPPTATISGLKPGVDYTITGYAVTMGQNDKELITPISINYRT
notes: Del 1-8

Target: T1, human vascular endothelial growth factor receptor-2 Fc chimera (KDR-Fc) (human, UniProt P35968 20-764)
T1 construct: range 1-764; also called human VEGFR-2; VEGF-R2-Fc; not shown: human IgG1 Fc
Experiment: radioactive equilibrium binding, 1 nM KDR-Fc
Description: To prepare ³⁵S-labeled binding proteins for analysis, mRNA was prepared as described above for RNA-protein fusion production but the linker ligation step was omitted. The mRNA was expressed using rabbit reticulocyte lysate translation kit (Ambion) in the presence of ³⁵S-labeled Met at 30° C. for 1 hour. Expressed protein was purified on M2-agarose Flag beads (Sigma) as described above. This procedure produced the encoded protein without the nucleic acid tail. In a direct binding assay, VEGF-R2-Fc fusions in concentrations ranging from 0 to 200 nM were added to a constant concentration of the purified protein (0.2 or 0.5 nM) and incubated at 30° C. for 1 hour in buffer B. The receptor-binder complexes were captured using Protein A magnetic beads for another 10 minutes at room temperature using a Kingfisher™ The beads were washed with six reaction volumes of buffer B. The protein was eluted from the beads with 100 μL of 0.1 M KOH. […] of the reaction mixture and elution were dried onto a LumaPlate-96 (Packard) and the amount of ³⁵S on the plate was measured using a TopCount NXT instrument (Packard). The amount of fibronectin-based scaffold protein bound to the target was estimated as a percent of radioactivity eluted from Protein A magnetic beads compare to radioactivity in the reaction mixture. Nonspecific binding of fibronectin-based scaffold proteins to the beads was determined by measuring binding in the absence of KDR-Fc and represented less than 1-2% of the input. Specific binding was obtained through subtraction of nonspecific binding from total binding. Data was analyzed using the GraphPad Prizm software (GraphPad Software, Inc, San Diego, Calif.), fitted using a one site, non-linear binding equation.

T1 sequence (P35968 20-764 limits assumed, change not shown, form in doubt): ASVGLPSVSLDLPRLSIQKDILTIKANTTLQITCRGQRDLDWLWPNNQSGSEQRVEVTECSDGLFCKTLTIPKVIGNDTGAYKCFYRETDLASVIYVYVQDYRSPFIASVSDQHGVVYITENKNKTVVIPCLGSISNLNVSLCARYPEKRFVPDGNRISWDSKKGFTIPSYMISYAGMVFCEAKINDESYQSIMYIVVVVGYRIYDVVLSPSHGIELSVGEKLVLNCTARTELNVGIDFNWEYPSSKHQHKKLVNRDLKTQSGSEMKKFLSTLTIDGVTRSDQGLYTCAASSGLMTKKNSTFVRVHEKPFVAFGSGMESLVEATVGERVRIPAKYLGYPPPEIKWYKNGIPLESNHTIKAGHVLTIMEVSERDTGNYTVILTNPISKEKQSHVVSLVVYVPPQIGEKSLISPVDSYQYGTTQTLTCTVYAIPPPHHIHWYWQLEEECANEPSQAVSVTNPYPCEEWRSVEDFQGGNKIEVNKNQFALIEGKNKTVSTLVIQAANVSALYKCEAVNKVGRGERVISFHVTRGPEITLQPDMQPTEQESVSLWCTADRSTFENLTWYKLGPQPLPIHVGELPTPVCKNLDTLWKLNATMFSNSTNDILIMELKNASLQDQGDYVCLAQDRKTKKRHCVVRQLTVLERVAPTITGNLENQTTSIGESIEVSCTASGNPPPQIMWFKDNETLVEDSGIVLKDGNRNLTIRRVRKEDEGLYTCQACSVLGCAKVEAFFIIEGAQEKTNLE

Binder | Binding to 1 nM KDR, % [%]
B1 | 14
B2 | 36
B3 | 23
B4 | 16
B5 | 17
B6 | 17
B7 | 16
B8 | 24
B9 | 22
B10 | 16
B11 | 17
B12 | 17
B13 | 18
B14 | 17
B15 | 16
B16 | 29
B17 | 17
B18 | 31

Binder | Binding to 1 nM KDR, % [%]
B19 | 33
B20 | 32
B21 | 26
B22 | 34
B23 | 15
B24 | 34
B25 | 28
B26 | 38
B27 | 18
B28 | 34
B29 | 33
B30 | 19
B31 | 43
B32 | 20
B33 | 22
B34 | 38
B35 | 42
B36 | 27
